Measured values taken from paper doi:10.1101/2022.10.21.513149, “Time-resolved cryo-EM using a combination of droplet microfluidics with on-demand jetting” (bioRxiv, 2022).

Assays:
[1] = target: T1, GroEL (Escherichia coli MG1655, UniProt P0A6F5 1-548); test: cryo-EM structure; steady state continuous turnover reference, conventional plunger at around 20 s after the start of the reaction; GroEL (3.7 mg/ml) mixed with GroES (0.7 mg/ml), ATP (2 mM), CHAPS (0.1 %); 22 °C; fractions of complexes from 3D classification of particles; conditions: both partners purified
T1 construct: GroEL of Escherichia coli MG1655; synthetic construct based on the GroEL gene, in a pET-15b vector; also called GroEL-ATP; GroEL-(ADP); source: E. coli BL21, purified (ammonium sulfate cuts, Source Q15 anion exchange, Superose gel filtration); copies: 14
T1 sequence (P0A6F5 whole entry): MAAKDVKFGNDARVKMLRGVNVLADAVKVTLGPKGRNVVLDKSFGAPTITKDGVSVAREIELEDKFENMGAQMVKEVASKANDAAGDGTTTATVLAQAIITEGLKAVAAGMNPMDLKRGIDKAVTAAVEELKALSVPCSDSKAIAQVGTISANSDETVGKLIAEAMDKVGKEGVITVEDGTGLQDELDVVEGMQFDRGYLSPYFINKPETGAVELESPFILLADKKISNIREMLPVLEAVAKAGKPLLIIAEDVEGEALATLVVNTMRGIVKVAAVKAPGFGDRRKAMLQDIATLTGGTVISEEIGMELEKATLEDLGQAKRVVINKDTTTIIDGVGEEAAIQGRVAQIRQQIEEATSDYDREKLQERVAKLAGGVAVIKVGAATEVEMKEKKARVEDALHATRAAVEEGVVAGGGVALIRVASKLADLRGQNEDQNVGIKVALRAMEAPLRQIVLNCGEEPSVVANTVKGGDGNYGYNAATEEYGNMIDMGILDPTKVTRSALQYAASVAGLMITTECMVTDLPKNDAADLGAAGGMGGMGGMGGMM

[2] = target: the molecule itself; test: as above

B1: GroES (natural protein, Escherichia coli MG1655, UniProt P0A6F9 1-97, looked up)
chain: MNIRPLHDRVIVKRKEVETKSAGGIVLTGSAAAKSTRGEVLAVGNGRILENGEVKPLDVKVGDIVIFNDGYGVKSEKIDNEEVLIMSESDILAIVEA
notes: GroES of Escherichia coli MG1655; synthetic construct based on the GroES gene, in a pET-15b vector; source: E. coli BL21, purified (Source Q15 anion exchange, Superdex 200 gel filtration)
stoichiometry N [1]: 2 | binding result [2]: binds
